Experimental data as given in patent EP4596580A1 (Staidson (Beijing) Biopharmaceuticals Co., Ltd., dated 2025).
Where two headings read alike, the source gives them in different places.

How the values were obtained:
His-human LIGHT [1] = target: T1, His-human LIGHT (human); assay: cell-based or functional assay
T1 chain: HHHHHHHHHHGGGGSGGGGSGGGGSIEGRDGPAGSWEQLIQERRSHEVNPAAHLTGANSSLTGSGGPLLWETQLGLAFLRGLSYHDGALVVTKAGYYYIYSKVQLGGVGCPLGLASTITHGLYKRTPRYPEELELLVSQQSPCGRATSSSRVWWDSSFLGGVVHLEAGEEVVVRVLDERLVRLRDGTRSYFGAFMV

His-human LIGHT [2] = target: T1, His-human LIGHT; assay: ELISA, His-huLIGHT coated
[3] = target: T2, His-cynomolgus monkey LIGHT (cynomolgus monkey); assay: SPR, Biacore 8K, antibody on CM5 chip
T2 construct: also called His-cynoLIGHT
T2 chain: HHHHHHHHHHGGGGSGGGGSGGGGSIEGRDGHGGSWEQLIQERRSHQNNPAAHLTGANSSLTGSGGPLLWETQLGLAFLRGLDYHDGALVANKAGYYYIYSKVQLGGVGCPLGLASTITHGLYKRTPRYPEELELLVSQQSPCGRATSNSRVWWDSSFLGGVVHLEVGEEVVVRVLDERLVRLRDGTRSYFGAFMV

[4] = target: T2, His-cynomolgus monkey LIGHT; assay: ELISA, His-cynoLIGHT coated
hFc-human LIGHT [5] = target: T3, hFc-human LIGHT (human); assay: competition ELISA, LTβR-His coated, hFc-huLIGHT added
T3 construct: also called hFc-huLIGHT

His-human LIGHT [6] = target: T1, His-human LIGHT; assay: ELISA, His-huLIGHT coated
His-human LIGHT [7] = target: T1, His-human LIGHT; assay: SPR, Biacore 8K, antibody on CM5 chip, human LIGHT
[8] = target: LIGHT on the surface of HEK293-LIGHT stable cells (human, UniProt O43557 1-240); assay: cell-based or functional assay
His-human LIGHT [9] = target: T1, His-human LIGHT; assay: cell-based or functional assay
hFc-human LIGHT [10] = target: T3, hFc-human LIGHT; assay: competition ELISA, LTβR-His coated, hFc-huLIGHT added; remark: listed apart in the source
His-human LIGHT [11] = target: T1, His-human LIGHT; assay: ELISA, His-huLIGHT coated

Row | Binder | EC50 [4] [nM] | IC50 (hFc-human LIGHT [5]) [nM] | EC50 (His-human LIGHT [6]) [µg/mL] | Kd (His-human LIGHT [7]) [nM] | koff (His-human LIGHT [7]) [s⁻¹] | kon (His-human LIGHT [7]) [M⁻¹ s⁻¹] | IC50, LTβR NF-κB luciferase reporter, HEK293-LIGHT cells [8] [µg/mL] | IC50, LTβR NF-κB luciferase reporter, free LIGHT (His-human LIGHT [9]) [µg/mL] | IC50 (hFc-human LIGHT [10]) [nM] | EC50 (His-human LIGHT [11]) [nM] | also measured
1 | LT-m17 (antibody, human IgG4, V domains shown) VH: QVQLQQSGPELVKPGASVKISCKASGYSFTGYFMNWVKQSHGKSLEWIGRIYPYSGDTFYNQKFNNKATLTVDKSSSTAHLELLSLTSEDSAVYYCGRSEHFGRNYGTGAVDYWGQGTSVTVSS VL: DVVMTQTPLSLPVSLGDQASISCRSSQGLVHSNGNTYLHWYLQKPGQSPKLLIYKVSNRFSGVPDRFSGSGSGTDFTLKISRVEAEDLGIYFCSQSTHVPYTFGGGTKLEIK |  |  |  |  |  |  |  |  |  |  | IC50, HVEM NF-κB luciferase reporter (293T-HVEM-NF-κB-Luc), free LIGHT (His-human LIGHT [1]): 0.184 µg/mL; EC50 (His-human LIGHT [2]): 0.0871 µg/mL; Kd [3]: 0.0582 nM; koff [3]: 4.24e-06 s⁻¹; kon [3]: 72700 M⁻¹ s⁻¹
2 | LT-m18 (antibody, V domains shown) VH: EVKLLESGPELVKPGASVKISCKASGYSFTGYFMNWVKQSHGKSLEWIGRIYPYSGDTFYNQKFNNKATLTVDKSSSTAHLELLSLTSEDSAVYYCGRSEHFGRNYGTGAVDYWGQGTSVTVSS VL: DIVLTQSPLSLPVSLGDQASISCRSSQSLVHSNGNTYLHWYLQKPGQSPKLLIYKVSNRFSGVPDRFSGSGSGTDFTLKISRVEAEDLGVYFCSQSTHVPLTFGDGTRLEIK |  |  |  |  |  |  |  |  |  |  | EC50 (His-human LIGHT [2]): 0.0835 µg/mL; Kd [3]: 0.16 nM; koff [3]: 1.26e-05 s⁻¹; kon [3]: 79100 M⁻¹ s⁻¹
3 | hum_LT-m37-7 (antibody, human IgG4, V domains shown, humanized from LT-m37) VH: QVQLVQSGAEVKKPGASVKVSCKASGYSFTGYFINWVRQAPGQGLEWIGRIYPYNVNTFYNQNFKGRATMTADKSTSTAYMELSSLRSEDTAVYYCGRGTHYYGSSGAMDYWGQGTLVTVSS VL: EIVMTQSPATLSVSPGERATLSCKASQNVGTAVAWYQQKPGQSPRLLIYSASNRYTGIPARFSGSGSGTEFTLTISSLQSEDFAVYFCQQYSSYPYTFGGGTKVEIK | 0.0474 | 0.069 | 0.0801 | 0.041 | 5.34e-05 | 1.3e+06 | 3.72 | 0.135 |  |  | 
4 | hum_LT-m37-11 (antibody, human IgG4, V domains shown, humanized from LT-m37) VH: QVQLVQSGAEVKKPGASVKVSCKASGYSFTGYFINWVRQAPGQGLEWIGRIYPYNVNTFYNQNFKGRATMTADKSTSTAYMELSSLRSEDTAVYYCGRGTHYYGSSGAMDYWGQGTLVTVSS VL: EIVLTQSPATLSVSPGERATLSCKASQNVGTAVAWYQQKPGQSPRLLIYSASNRYTGIPARFSGSGSGTEFTLTISSLQSEDFAVYYCQQYSSYPYTFGGGTKVEIK | 0.0494 | 0.0864 | 0.0907 | 0.062 | 7.69e-05 | 1.24e+06 | 2.93 | 0.203 |  |  | 
5 | hum_LT-m37-12 (antibody, human IgG4, V domains shown, humanized from LT-m37) VH: QVQLVQSGAEVKKPGASVKVSCKASGYSFTGYFINWVRQAPGQGLEWIGRIYPYNVNTFYNQNFKGRVTMTADKSTSTAYMELSSLRSEDTAVYYCGRGTHYYGSSGAMDYWGQGTLVTVSS VL: EIVLTQSPATLSVSPGERATLSCKASQNVGTAVAWYQQKPGQSPRLLIYSASNRYTGIPARFSGSGSGTEFTLTISSLQSEDFAVYYCQQYSSYPYTFGGGTKVEIK | 0.053 | 0.0773 | 0.0878 | 0.0575 | 6.75e-05 | 1.18e+06 | 2.57 | 0.144 |  |  | 
6 | hum_LT-m37-9 (antibody, human IgG4, V domains shown, humanized from LT-m37) VH: QVQLVQSGAEVKKPGASVKVSCKASGYSFTGYFINWVRQAPGQSLEWIGRIYPYNVNTFYNQNFKGRATLTADKSTSTAYMELSSLRSEDTAVYYCGRGTHYYGSSGAMDYWGQGTLVTVSS VL: EIVLTQSPATLSVSPGERATLSCKASQNVGTAVAWYQQKPGQSPRLLIYSASNRYTGIPARFSGSGSGTEFTLTISSLQSEDFAVYYCQQYSSYPYTFGGGTKVEIK | 0.0478 | 0.083 | 0.0825 | 0.383 | 8.03e-05 | 210000 | 3.86 | 0.227 |  |  | 
7 | hum_LT-m37-8 (antibody, human IgG4, V domains shown, humanized from LT-m37) VH: QVQLVQSGAEVKKPGASVKVSCKASGYSFTGYFINWVRQAPGQGLEWIGRIYPYNVNTFYNQNFKGRVTMTADKSTSTAYMELSSLRSEDTAVYYCGRGTHYYGSSGAMDYWGQGTLVTVSS VL: EIVMTQSPATLSVSPGERATLSCKASQNVGTAVAWYQQKPGQSPRLLIYSASNRYTGIPARFSGSGSGTEFTLTISSLQSEDFAVYFCQQYSSYPYTFGGGTKVEIK | 0.0449 | 0.0676 | 0.0795 | 0.038 | 4.86e-05 | 1.28e+06 | 3.22 | 0.17 |  |  | 
8 | hum_LT-m37-10 (antibody, human IgG4, V domains shown, humanized from LT-m37) VH: QVQLVQSGAEVKKPGASVKVSCKASGYSFTGYFINWVRQAPGQGLEWIGRIYPYNVNTFYNQNFKGRATLTADKSTSTAYMELSSLRSEDTAVYYCGRGTHYYGSSGAMDYWGQGTLVTVSS VL: EIVLTQSPATLSVSPGERATLSCKASQNVGTAVAWYQQKPGQSPRLLIYSASNRYTGIPARFSGSGSGTEFTLTISSLQSEDFAVYYCQQYSSYPYTFGGGTKVEIK | 0.0463 |  | 0.0918 |  |  |  | 4.46 | 0.153 |  |  | 
9 | hum_LT-m85-5 (antibody, human IgG4, V domains shown, humanized from LT-m85) VH: QVQLVQSGAEVKKPGASVKVSCKASGYTFTSYNVHWVRQAPGQGLEWIGAVYPGNGDTSYNQKFKGRATLTADKSTSTAYMELSSLRSEDTAVYYCARGSYYYTSSYFDHWGQGTLVTVSS VL: DIVLTQSPDSLAVSLGERATINCKASQSVDFDGDSYMNWYQQKPGQPPKLLIYTASNLESGIPDRFSGSGSGTDFTLTISSLQAEDVAVYYCQQSYEDPFTFGQGTKVEIK |  |  |  |  |  |  |  |  | 0.174 | 0.0061 | 
10 | hum_LT-m85-6 (antibody, human IgG4, V domains shown, humanized from LT-m85) VH: QVQLVQSGAEVKKPGASVKVSCKASGYTFTSYNVHWVRQAPGQGLEWMGAVYPGNGDTSYNQKFKGRATLTADKSTSTAYMELSSLRSEDTAVYYCARGSYYYTSSYFDHWGQGTLVTVSS VL: DIVLTQSPDSLAVSLGERATINCKASQSVDFDGDSYMNWYQQKPGQPPKLLIYTASNLESGIPDRFSGSGSGTDFTLTISSLQAEDVAVYYCQQSYEDPFTFGQGTKVEIK |  |  |  |  |  |  |  |  | 0.195 | 0.00479 | 
11 | hum_LT-m85-7 (antibody, human IgG4, V domains shown, humanized from LT-m85) VH: QVQLVQSGAEVKKPGASVKVSCKASGYTFTSYNVHWVRQAPGQGLEWIGAVYPGNGDTSYNQKFKGRATLTADKSTSTVYMELSSLRSEDTAVYYCARGSYYYTSSYFDHWGQGTLVTVSS VL: DIVLTQSPDSLAVSLGERATINCKASQSVDFDGDSYMNWYQQKPGQPPKLLIYTASNLESGIPDRFSGSGSGTDFTLTISSLQAEDVAVYYCQQSYEDPFTFGQGTKVEIK |  |  |  |  |  |  |  |  | 0.223 | 0.00542 | 
12 | hum_LT-m85-8 (antibody, human IgG4, V domains shown, humanized from LT-m85) VH: QVQLVQSGAEVKKPGASVKVSCKASGYTFTSYNVHWVRQAPGQGLEWIGAVYPGNGDTSYNQKFKGRATLTADKSTSTAYMELSSLRSEDTAVYYCARGSYYYTSSYFDHWGQGTLVTVSS VL: DIVMTQSPDSLAVSLGERATINCKASQSVDFDGDSYMNWYQQKPGQPPKLLIYTASNLESGVPDRFSGSGSGTDFTLTISSLQAEDVAVYYCQQSYEDPFTFGQGTKVEIK |  |  |  |  |  |  |  |  | 0.189 | 0.00951 | 
13 | hum_LT-m85-9 (antibody, human IgG4, V domains shown, humanized from LT-m85) VH: QVQLVQSGAEVKKPGASVKVSCKASGYTFTSYNVHWVRQAPGQGLEWIGAVYPGNGDTSYNQKFKGRATLTADKSTSTVYMELSSLRSEDTAVYYCARGSYYYTSSYFDHWGQGTLVTVSS VL: DIVMTQSPDSLAVSLGERATINCKASQSVDFDGDSYMNWYQQKPGQPPKLLIYTASNLESGVPDRFSGSGSGTDFTLTISSLQAEDVAVYYCQQSYEDPFTFGQGTKVEIK |  |  |  |  |  |  |  |  | 0.204 | 0.002 | 
